What was measured:
[1] = molecular target: T1, sCLU (Macaca mulatta, UniProt F6S885); test: sCLU serum concentrations after single dose of AB-16B5; assay type: in vivo; details: Rhesus monkeys
T1 construct: from tissue; host or cells: serum of Rhesus monkeys dosed with AB-16B5
From the text: There was an approximate 70% increase in systemic exposure following repeated dosing from Day 1 to Day 26 which is consistent with the elimination half-life of AB-16B5 and the dosing intervals. […] The sCLU concentrations were generally back to their baseline levels after 3 to 5 days. The concurrent decrease in sCLU concentrations immediately following dosing with AB-16B5 is consistent with an antigen-sink phenomenon.

[2] = Non-clinical toxicity, weekly administration, rats; assay type: in vivo, Sprague-Dawley rats
From the text: This finding most likely reflects a slight antigenic stimulation by AB-16B5 in these 2 regional lymph nodes.

[3] = Non-clinical toxicity, weekly administration, monkeys; assay type: in vivo, Rhesus monkeys
From the text: Consequently, they were not considered to be toxicologically significant.

[4] = tested on: frozen tissues from human, Rhesus monkey, and Sprague-Dawley rat; test: Tissue cross-reactivity study; assay type: binding; details: AB-16B5 staining at 2 and 10 μg/mL
Experimental: In addition, a tissue cross-reactivity study was conducted to determine the potential cross-reactivity of AB-16B5 with frozen tissues from human, Rhesus monkey, and Sprague-Dawley rat tissues.

T1 sequence (F6S885 22-448): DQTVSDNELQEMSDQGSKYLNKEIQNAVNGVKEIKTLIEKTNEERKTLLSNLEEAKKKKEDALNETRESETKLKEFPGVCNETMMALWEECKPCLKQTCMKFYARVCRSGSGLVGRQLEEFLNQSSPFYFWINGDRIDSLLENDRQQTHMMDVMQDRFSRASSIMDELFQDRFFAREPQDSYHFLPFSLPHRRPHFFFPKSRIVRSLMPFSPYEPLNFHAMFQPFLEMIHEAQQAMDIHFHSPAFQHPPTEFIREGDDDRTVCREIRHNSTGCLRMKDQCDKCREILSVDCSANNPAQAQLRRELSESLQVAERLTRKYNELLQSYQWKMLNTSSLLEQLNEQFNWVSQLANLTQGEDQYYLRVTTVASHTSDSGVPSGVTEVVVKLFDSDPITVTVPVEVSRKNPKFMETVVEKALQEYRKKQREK

AB-16B5: humanized IgG2 monoclonal antibody targeting sCLU; light chain SEQ ID NO:11, heavy chain SEQ ID NO:12
sCLU serum concentrations following dosing [1]: decreased significantly | No Observable Adverse Effect Level (NOAEL) ([2]; Sprague-Dawley rats, weekly administration): 100 mg/kg/dose | incidence of minimal lymphoid hypercellularity, mandibular lymph node ([2]; rat, in vivo): 1/20 | incidence of minimal lymphoid hypercellularity, mesenteric lymph node ([2]; rat, in vivo): 2/20 | treatment-related clinical signs and changes (body weight, food consumption, ophthalmology, clinical pathology, organ weights) ([2]; rat, in vivo): did not result in any treatment-related clinical signs | No Observable Adverse Effect Level (NOAEL) ([3]; Rhesus monkeys, weekly administration): 100 mg/kg/dose | signs of overt toxicity ([3]; rhesus monkey, in vivo): did not result in any signs of overt toxicity | hepatocellular vacuolation in the liver ([3]; rhesus monkey, in vivo, 100 mg/kg): 2 animals | membrane staining in tissue panels [4]: no membrane staining was observed

Source: US20240317884A1, “METHOD FOR ALLOWING IMMUNE CELLS INFILTRATION IN TUMORS” (Alethia Biotherapeutics Inc., priority 2021, published 2024)
